The text below walks through data of publication PMC6644751 (2018).

Assay in all cases: HSQC-NMR titration
The target of assay [1] is T1, S100B (Homo sapiens, UniProt P04271).
T1 chain: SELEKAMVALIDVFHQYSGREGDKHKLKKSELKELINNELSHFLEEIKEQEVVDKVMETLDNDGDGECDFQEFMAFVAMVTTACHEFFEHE

For assay [2], the target named is T1, S100B.
Another assay deals with T2, S100A11 (Homo sapiens, UniProt P31949).
T2 chain: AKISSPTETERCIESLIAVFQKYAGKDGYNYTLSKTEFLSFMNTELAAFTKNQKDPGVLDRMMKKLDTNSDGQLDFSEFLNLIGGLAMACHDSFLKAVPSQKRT

Read-outs that look alike come from different tables or passages of the source.

B1: S100A11 (protein)
chain: T2 chain
modifications: Ca2+, monomers after urea denaturation/renaturation
For the molecule B1, the Kd was approximately 2650 nM in the assay with S100B [1] and approximately 2800 nM in the assay with S100B [2].

B2: S100B (protein)
chain: T1 chain
modifications: Ca2+, monomers after urea denaturation/renaturation
For the molecule B2, the Kd in the assay with S100A11 is approximately 2500 nM.

What is called Kd is the concentration at which binding is half-saturated. Read a low Kd as higher affinity.
